Test results reported in PMC9733695.

Molecular target: human FcRn (neonatal Fc receptor), coupled to a Sepharose affinity column (human) (UniProt P55899)
Test: FcRn affinity chromatography

Sequence of UniProt P55899 (P55899 whole entry, looked up, tested part not stated): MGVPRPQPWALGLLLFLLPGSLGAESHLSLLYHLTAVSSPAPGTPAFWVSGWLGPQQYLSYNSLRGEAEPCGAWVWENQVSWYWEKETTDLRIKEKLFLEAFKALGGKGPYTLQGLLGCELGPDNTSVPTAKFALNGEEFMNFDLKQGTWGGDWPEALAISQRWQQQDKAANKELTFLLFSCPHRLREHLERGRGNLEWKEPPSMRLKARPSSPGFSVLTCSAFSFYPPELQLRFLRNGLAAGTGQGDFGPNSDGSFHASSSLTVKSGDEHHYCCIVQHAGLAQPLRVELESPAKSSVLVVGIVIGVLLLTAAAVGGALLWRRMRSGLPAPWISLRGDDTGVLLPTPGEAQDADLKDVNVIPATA

Substance	retention time on the FcRn affinity column [min]
Antibody 4 TM (human IgG1 Fc with the TM modification)	15.9
Antibody 4 WT (wild-type human IgG1 Fc)	16.3
